Laboratory results from patent US20250263462A1 (US Dept. of Health and Human Services, published 2025).

Legend:
Test in all cases: cell-based or functional assay
[1] = target: WT KRAS 9-mer peptide (SEQ ID NO: 31) presented by HLA-A11 on pulsed cells (human, UniProt A*11:01)
[2] = target: T1, WT KRAS 10-mer peptide (SEQ ID NO: 30) presented by HLA-A11 on pulsed cells (human, UniProt A*11:01)
[3] = target: T2, KRAS G12D 9-mer peptide KRAS8-16 … (SEQ ID NO: 34) presented by HLA-A11 on pulsed cells (human, UniProt A*11:01)
[4] = target: T1, WT KRAS 10-mer peptide (SEQ ID NO: 30) …; remark: listed apart in the source
[5] = target: T3, KRAS G12D 10-mer peptide … (SEQ ID NO: 2) presented by HLA-A11 on pulsed cells (human, UniProt A*11:01)
[6] = target: KRAS G12V 9-mer peptide … (SEQ ID NO: 35) presented by HLA-A11 on pulsed cells (human, UniProt A*11:01)
[7] = target: T1, WT KRAS 10-mer peptide (SEQ ID NO: 30) …; remark: listed apart in the source
[8] = target: T3, KRAS G12D 10-mer peptide … (SEQ ID NO: …); remark: listed apart in the source
[9] = target: T2, KRAS G12D 9-mer peptide KRAS8-16 … (SEQ …); remark: listed apart in the source
[10] = target: HLA-A11 on COS7/A11 cells expressing the KRAS G12V minigene (23-mer SEQ ID NO: 120) (human, UniProt A*11:01)
[11] = target: HLA-A11 on COS7/A11 cells expressing the WT KRAS minigene (23-mer SEQ ID NO: 118) (human, UniProt A*11:01)
[12] = target: HLA-A11 on COS7/A11 cells expressing the KRAS G12D minigene (23-mer SEQ ID NO: 119) (human, UniProt A*11:01)

B1: TRAV4-4/DV10*01/BV12-2*01 murine anti-KRAS G12D TCR (SEQ ID NOs: 157 and 158) (TCR, V domains shown)
V domain 1: GDQVEQSPSALSLHEGTDSALRCNFTTTMRSVQWFRQNSRGSLISLFYLASGTKENGRLKSAFDSKERRYSTLHIRDAQLEDSGTYFCAADSSNTGYQNFYFGKGTSLTVIP
V domain 2: NSGVVQSPRYIIKGKGERSILKCIPISGHLSVAWYQQTQGQELKFFIQHYDKMERDKGNLPSRFSVQQFDDYHSEMNMSALELEDSAVYFCASSLTDPLDSDYTFGSGTRLLVIE
For B1, the “IFN-γ, PBL + Cos7/A11 pulsed at 10^-6 M” value [1] was 54 pg/mL, the “IFN-γ, PBL + Cos7/A11 pulsed at 10^-7 M” value [1] was 53 pg/mL and the “IFN-γ, PBL + Cos7/A11 pulsed at 10^-8 M” value [1] was 59 pg/mL. The “IFN-γ, PBL + Cos7/A11 pulsed at 10^-9 M” value [1] was 54 pg/mL, the “IFN-γ, PBL + Cos7/A11 pulsed at 10^-10 M” value [1] was 51 pg/mL and the “IFN-γ, PBL + Cos7/A11 pulsed at 10^-11 M” value [1] was 48 pg/mL. For the same binder, the “IFN-γ, PBL + Cos7/A11 pulsed at 10^-12 M” value [1] was 52 pg/mL, the “IFN-γ, PBL + Cos7/A11 pulsed at 10^-13 M” value [1] was 51 pg/mL and the “IFN-γ, PBL + Cos7/A11 pulsed at 10^-6 M” value [2] was 56 pg/mL. The “IFN-γ, PBL + Cos7/A11 pulsed at 10^-7 M” value [2] was 57 pg/mL, the “IFN-γ, PBL + Cos7/A11 pulsed at 10^-8 M” value [2] was 51 pg/mL and the “IFN-γ, PBL + Cos7/A11 pulsed at 10^-9 M” value [2] was 51 pg/mL. The “IFN-γ, PBL + Cos7/A11 pulsed at 10^-10 M” value [2] was 54 pg/mL, the “IFN-γ, PBL + Cos7/A11 pulsed at 10^-11 M” value [2] was 50 pg/mL and the “IFN-γ, PBL + Cos7/A11 pulsed at 10^-12 M” value [2] was 44 pg/mL. The “IFN-γ, PBL + Cos7/A11 pulsed at 10^-13 M” value [2] was 54 pg/mL, the “IFN-γ, PBL + Cos7/A11 pulsed at 10^-6 M” value [3] was 131 pg/mL and the “IFN-γ, PBL + Cos7/A11 pulsed at 10^-7 M” value [3] was 60 pg/mL. For the same binder, the “IFN-γ, PBL + Cos7/A11 pulsed at 10^-8 M” value [3] was 47 pg/mL, the “IFN-γ, PBL + Cos7/A11 pulsed at 10^-9 M” value [3] was 53 pg/mL and the “IFN-γ, PBL + Cos7/A11 pulsed at 10^-10 M” value [3] was 53 pg/mL. For the same binder, the “IFN-γ, PBL + Cos7/A11 pulsed at 10^-11 M” value [3] was 52 pg/mL, the “IFN-γ, PBL + Cos7/A11 pulsed at 10^-12 M” value [3] was 58 pg/mL and the “IFN-γ, PBL + Cos7/A11 pulsed at 10^-13 M” value [3] was 51 pg/mL.

B2: TRAV19*01/TRBV13-1*02 murine anti-KRAS G12V TCR (SEQ ID NOs: 145 and 146) (TCR, V domains shown)
V domain 1: GQQVKQSSPSLTVQEGGILILNCDYENDMFDYFAWYKKYPDNSPTLLISVRSNVDKREDGRFTVFLNKSGKHFSLHITASQPEDTAVYLCAAGDSGGSNYKLTFGKGTLLTVTP
V domain 2: EAAVTQSPRNKVTVTGGNVTLSCRQTNSHNYMYWYRQDTGHGLRLIHYSYGAGNLQIGDVPDGYKATRTTQEDFFLLLELASPSQTSLYFCASASWGGYAEQFFGPGTRLTVLE
B2 was tested, and the “IFN-γ, PBL + pulsed Cos7/A11” value [4] was 90 pg/mL, the “IFN-γ, PBL + pulsed Cos7/A11” value [5] was 94 pg/mL and the “IFN-γ, PBL + Cos7/A11 pulsed at 10^-6 (10^× µM)” value (“IFN-γ … at 10^-6 (10^× µM)” below) [6] was 112 pg/mL. The “IFN-γ, PBL + Cos7/A11 pulsed at 10^-7 (10^× µM)” value (from here on “IFN-γ … at 10^-7 (10^× µM)”) [6] was 70 pg/mL, the “IFN-γ, PBL + Cos7/A11 pulsed at 10^-8 (10^× µM)” value (shortened to “IFN-γ … at 10^-8 (10^× µM)”) [6] was 52 pg/mL and the “IFN-γ, PBL + Cos7/A11 pulsed at 10^-9 (10^× µM)” value (“IFN-γ … at 10^-9 (10^× µM)” below) [6] was 55 pg/mL. The “IFN-γ, PBL + Cos7/A11 pulsed at 10^-10 (10^× µM)” value (from here on “IFN-γ … at 10^-10 (10^× µM)”) [6] was 64 pg/mL, the “IFN-γ, PBL + Cos7/A11 pulsed at 10^-11 (10^× µM)” value (“IFN-γ … at 10^-11 (10^× µM)” below) [6] was 62 pg/mL and the “IFN-γ, PBL + Cos7/A11 pulsed at 10^-12 (10^× µM)” value (shortened to “IFN-γ … at 10^-12 (10^× µM)”) [6] was 66 pg/mL. The “IFN-γ, PBL + Cos7/A11 pulsed at 10^-13 (10^× µM)” value (“IFN-γ … at 10^-13 (10^× µM)” for short) [6] was 64 pg/mL, the “IFN-γ … at 10^-6 (10^× µM)” value [7] was 57 pg/mL and the “IFN-γ … at 10^-7 (10^× µM)” value [7] was 56 pg/mL. The “IFN-γ … at 10^-8 (10^× µM)” value [7] was 57 pg/mL, the “IFN-γ … at 10^-9 (10^× µM)” value [7] was 49 pg/mL and the “IFN-γ … at 10^-10 (10^× µM)” value [7] was 57 pg/mL. For the same binder, the “IFN-γ … at 10^-11 (10^× µM)” value [7] was 65 pg/mL, the “IFN-γ … at 10^-12 (10^× µM)” value [7] was 67 pg/mL and the “IFN-γ … at 10^-13 (10^× µM)” value [7] was 70 pg/mL. For the same binder, the “IFN-γ … at 10^-6 (10^× µM)” value [8] was 61 pg/mL, the “IFN-γ … at 10^-7 (10^× µM)” value [8] was 50 pg/mL and the “IFN-γ … at 10^-8 (10^× µM)” value [8] was 49 pg/mL. For the same binder, the “IFN-γ … at 10^-9 (10^× µM)” value [8] was 59 pg/mL, the “IFN-γ … at 10^-10 (10^× µM)” value [8] was 52 pg/mL and the “IFN-γ … at 10^-11 (10^× µM)” value [8] was 64 pg/mL. The “IFN-γ … at 10^-12 (10^× µM)” value [8] was 62 pg/mL, the “IFN-γ … at 10^-13 (10^× µM)” value [8] was 63 pg/mL and the “IFN-γ … at 10^-6 (10^× µM)” value [9] was 63 pg/mL. For the same binder, the “IFN-γ … at 10^-7 (10^× µM)” value [9] was 57 pg/mL, the “IFN-γ … at 10^-8 (10^× µM)” value [9] was 48 pg/mL and the “IFN-γ … at 10^-9 (10^× µM)” value [9] was 54 pg/mL. For the same binder, the “IFN-γ … at 10^-10 (10^× µM)” value [9] was 62 pg/mL, the “IFN-γ … at 10^-11 (10^× µM)” value [9] was 52 pg/mL and the “IFN-γ … at 10^-12 (10^× µM)” value [9] was 57 pg/mL. The “IFN-γ … at 10^-13 (10^× µM)” value [9] was 70 pg/mL, the “IFN-γ, PBL + Cos7/A11 minigene transfectant” value [10] was 18100 pg/mL and the “IFN-γ, PBL + Cos7/A11 minigene transfectant” value [11] was 92 pg/mL. For the same binder, the “IFN-γ, PBL + Cos7/A11 minigene transfectant” value [12] was 81 pg/mL.
